The supplement of paper PMC7877785
± gives the uncertainty stated by the source.

Experiment: self-splicing fitness, log relative to wild type (ln ratio); higher = more splicing; Tetrahymena group I intron in knt gene, E. coli kanamycin selection, DiMSum; sequences stand for … in CUCUCU…GGAGGGAAAAGUUAUCAGGCAUGCACCUGGUAGCUAGUCUUUAAACCAAUAGAUUGCAUCGGUUUAAAAGGCAAGACCGUCAAAUUGCGGGAAAGGGGUCAACAGCCGUUCAGUACCAAGUCUCAGGGGAAACUUUGAGAUGGCCUUGCAAAGGGUAUGGUAAUAAGCUGACGGACAUGGUCCUAACCACGCAGCCAAGUCCUAAGUCAACAGAUCUUCUGUUGAUAUGGAUGCAGUUCACAGACUAAAUGUCGGUCGGGGAAGAUGUAUUCUUCUCAUAAGAUAUAGUCGGACCUCUCCUUAAUGGGAGCUAGCGGAUGAAGUGAUGCAACACUGGAGCCGCUGGGAACUAAUUUGUAUGCGAAAGUAUAUUGAUUAGUUUUGGAGUACUCGUGGUCG
In short: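 A randomised library covering all eight P1ex-region intron nucleotides was built with the intron in the knt kanamycin-resistance gene on pET-22b(+) and held in E. coli BL21(DE3). Cells were grown overnight at 37°C or 30°C on LB agar, with or without 25 μg/mL kanamycin, plus 100 μg/mL carbenicillin, 50 μM IPTG and 0.2% rhamnose, and pooled colonies were amplicon-sequenced on an Illumina HiSeq 2500. DiMSum fitness is the error-weighted combination of wild-type-normalised replicate fold changes, kanamycin versus none.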

ACAUAGCAAUAUUACGUCGU
self-splicing fitness (ln) (30 °C): -2.92 ± 0.11
self-splicing fitness (ln) (37 °C): -2.33 ± 0.13

ACAUAGCAAUAUUACGUGAU
self-splicing fitness (ln) (30 °C): -1.7 ± 0.061
self-splicing fitness (ln) (37 °C): -1.2 ± 0.088

ACAUAGCAAUAUUACGUGCU
self-splicing fitness (ln) (30 °C): -0.99 ± 0.072
self-splicing fitness (ln) (37 °C): -1.1 ± 0.085

ACCAAGCAAUAUUACGAAUC
self-splicing fitness (ln) (30 °C): -1.48 ± 0.18
self-splicing fitness (ln) (37 °C): -1.4 ± 0.2

ACCAAGCAAUAUUACGACCC
self-splicing fitness (ln) (30 °C): -1.37 ± 0.096
self-splicing fitness (ln) (37 °C): -0.181 ± 0.15

ACCAAGCAAUAUUACGACUC
self-splicing fitness (ln) (30 °C): -1.56 ± 0.17
self-splicing fitness (ln) (37 °C): -0.459 ± 0.2

ACCAAGCAAUAUUACGACUG
self-splicing fitness (ln) (30 °C): -1.11 ± 0.062
self-splicing fitness (ln) (37 °C): -1.07 ± 0.099

ACCAAGCAAUAUUACGAUUG
self-splicing fitness (ln) (30 °C): -2.86 ± 0.13
self-splicing fitness (ln) (37 °C): -3.02 ± 0.16

ACCAAGCAAUAUUACGCAGU
self-splicing fitness (ln) (30 °C): -3.71 ± 0.22
self-splicing fitness (ln) (37 °C): -2.77 ± 0.28

ACCAAGCAAUAUUACGCGAG
self-splicing fitness (ln) (30 °C): -2.46 ± 0.076
self-splicing fitness (ln) (37 °C): -1.27 ± 0.072

ACCAAGCAAUAUUACGCGUC
self-splicing fitness (ln) (30 °C): -3.45 ± 0.2
self-splicing fitness (ln) (37 °C): -2.46 ± 0.22

ACCAAGCAAUAUUACGCUAC
self-splicing fitness (ln) (30 °C): -2.89 ± 0.13
self-splicing fitness (ln) (37 °C): -0.773 ± 0.1

ACCAAGCAAUAUUACGCUUA
self-splicing fitness (ln) (30 °C): -1.86 ± 0.11
self-splicing fitness (ln) (37 °C): -1.08 ± 0.11

ACCAAGCAAUAUUACGGAGG
self-splicing fitness (ln) (30 °C): -1.63 ± 0.12
self-splicing fitness (ln) (37 °C): -1.8 ± 0.29

ACCAAGCAAUAUUACGGCAA
self-splicing fitness (ln) (30 °C): -0.915 ± 0.08
self-splicing fitness (ln) (37 °C): -0.348 ± 0.099

ACCAAGCAAUAUUACGGGCC
self-splicing fitness (ln) (30 °C): -2.26 ± 0.085
self-splicing fitness (ln) (37 °C): -2.07 ± 0.096

ACCAAGCAAUAUUACGGGUA
self-splicing fitness (ln) (30 °C): -1.98 ± 0.091
self-splicing fitness (ln) (37 °C): -0.405 ± 0.072

ACCAAGCAAUAUUACGGUAA
self-splicing fitness (ln) (30 °C): -2.9 ± 0.14
self-splicing fitness (ln) (37 °C): -2.02 ± 0.12

ACCAAGCAAUAUUACGGUAC
self-splicing fitness (ln) (30 °C): -3.83 ± 0.22
self-splicing fitness (ln) (37 °C): -1.16 ± 0.15

ACCAAGCAAUAUUACGGUGU
self-splicing fitness (ln) (30 °C): -3.43 ± 0.11
self-splicing fitness (ln) (37 °C): -2.18 ± 0.11

ACCAAGCAAUAUUACGGUUG
self-splicing fitness (ln) (30 °C): -3.21 ± 0.11
self-splicing fitness (ln) (37 °C): -3.88 ± 0.23

ACCAAGCAAUAUUACGUACA
self-splicing fitness (ln) (30 °C): -1.46 ± 0.079
self-splicing fitness (ln) (37 °C): -1.05 ± 0.085

ACCAAGCAAUAUUACGUCGG
self-splicing fitness (ln) (30 °C): -2.09 ± 0.074
self-splicing fitness (ln) (37 °C): -1.36 ± 0.09

ACCAAGCAAUAUUACGUCUA
self-splicing fitness (ln) (30 °C): -1.29 ± 0.11
self-splicing fitness (ln) (37 °C): -0.982 ± 0.1

ACCAAGCAAUAUUACGUUAG
self-splicing fitness (ln) (30 °C): -3.94 ± 0.17
self-splicing fitness (ln) (37 °C): -2.83 ± 0.17

ACCCAGCAAUAUUACGACGA
self-splicing fitness (ln) (30 °C): -0.509 ± 0.084
self-splicing fitness (ln) (37 °C): -0.36 ± 0.086

ACCCAGCAAUAUUACGACUA
self-splicing fitness (ln) (30 °C): -0.803 ± 0.082
self-splicing fitness (ln) (37 °C): -0.765 ± 0.086

ACCCAGCAAUAUUACGACUC
self-splicing fitness (ln) (30 °C): -0.5 ± 0.061
self-splicing fitness (ln) (37 °C): -0.482 ± 0.079

ACCCAGCAAUAUUACGAGAU
self-splicing fitness (ln) (30 °C): -1.72 ± 0.061
self-splicing fitness (ln) (37 °C): -0.655 ± 0.073

ACCCAGCAAUAUUACGAGCU
self-splicing fitness (ln) (30 °C): -4.29 ± 0.21
self-splicing fitness (ln) (37 °C): -2.17 ± 0.14

ACCCAGCAAUAUUACGAUCC
self-splicing fitness (ln) (30 °C): -1.96 ± 0.079
self-splicing fitness (ln) (37 °C): -1.17 ± 0.12

ACCCAGCAAUAUUACGAUUC
self-splicing fitness (ln) (30 °C): -1.71 ± 0.046
self-splicing fitness (ln) (37 °C): -0.7 ± 0.063

ACCCAGCAAUAUUACGCAGC
self-splicing fitness (ln) (30 °C): -1.41 ± 0.068
self-splicing fitness (ln) (37 °C): -0.445 ± 0.068

ACCCAGCAAUAUUACGCCAA
self-splicing fitness (ln) (30 °C): -2.43 ± 0.15
self-splicing fitness (ln) (37 °C): -2.03 ± 0.15

ACCCAGCAAUAUUACGCCGG
self-splicing fitness (ln) (30 °C): -3.06 ± 0.16
self-splicing fitness (ln) (37 °C): -2.96 ± 0.26

ACCCAGCAAUAUUACGCGAU
self-splicing fitness (ln) (30 °C): -1.84 ± 0.1
self-splicing fitness (ln) (37 °C): -1.47 ± 0.11

ACCCAGCAAUAUUACGCGCG
self-splicing fitness (ln) (30 °C): -1.66 ± 0.077
self-splicing fitness (ln) (37 °C): -0.872 ± 0.097

ACCCAGCAAUAUUACGCUCU
self-splicing fitness (ln) (30 °C): -0.186 ± 0.058
self-splicing fitness (ln) (37 °C): 0.107 ± 0.067

ACCCAGCAAUAUUACGCUGC
self-splicing fitness (ln) (30 °C): -3.77 ± 0.26
self-splicing fitness (ln) (37 °C): -2.88 ± 0.27

ACCCAGCAAUAUUACGGCGA
self-splicing fitness (ln) (30 °C): -0.786 ± 0.076
self-splicing fitness (ln) (37 °C): 0.532 ± 0.096

ACCCAGCAAUAUUACGGCUG
self-splicing fitness (ln) (30 °C): -3.68 ± 0.2
self-splicing fitness (ln) (37 °C): -2.06 ± 0.18

ACCCAGCAAUAUUACGGGCU
self-splicing fitness (ln) (30 °C): -1.68 ± 0.07
self-splicing fitness (ln) (37 °C): -0.729 ± 0.072

ACCCAGCAAUAUUACGGUAG
self-splicing fitness (ln) (30 °C): -3.82 ± 0.11
self-splicing fitness (ln) (37 °C): -2.97 ± 0.16

ACCCAGCAAUAUUACGUAAA
self-splicing fitness (ln) (30 °C): -0.691 ± 0.053
self-splicing fitness (ln) (37 °C): -0.513 ± 0.075

ACCCAGCAAUAUUACGUACG
self-splicing fitness (ln) (30 °C): -2.2 ± 0.14
self-splicing fitness (ln) (37 °C): -1.71 ± 0.16

ACCCAGCAAUAUUACGUAGC
self-splicing fitness (ln) (30 °C): -0.673 ± 0.044
self-splicing fitness (ln) (37 °C): -0.163 ± 0.064

ACCCAGCAAUAUUACGUAGU
self-splicing fitness (ln) (30 °C): 0.0959 ± 0.045
self-splicing fitness (ln) (37 °C): 0.0745 ± 0.058

ACCCAGCAAUAUUACGUGGA
self-splicing fitness (ln) (30 °C): -0.54 ± 0.048
self-splicing fitness (ln) (37 °C): 0.15 ± 0.057

ACCCAGCAAUAUUACGUUCA
self-splicing fitness (ln) (30 °C): -0.957 ± 0.061
self-splicing fitness (ln) (37 °C): -0.811 ± 0.071

ACCCAGCAAUAUUACGUUGA
self-splicing fitness (ln) (30 °C): -1.66 ± 0.073
self-splicing fitness (ln) (37 °C): -1.03 ± 0.075

ACCCAGCAAUAUUACGUUGU
self-splicing fitness (ln) (30 °C): -0.339 ± 0.043
self-splicing fitness (ln) (37 °C): -0.0259 ± 0.057

ACCGAGCAAUAUUACGAAGA
self-splicing fitness (ln) (30 °C): -3.11 ± 0.28
self-splicing fitness (ln) (37 °C): -2.54 ± 0.29

ACCGAGCAAUAUUACGACAC
self-splicing fitness (ln) (30 °C): -3.48 ± 0.38
self-splicing fitness (ln) (37 °C): -1.73 ± 0.26

ACCGAGCAAUAUUACGACUG
self-splicing fitness (ln) (30 °C): -2.73 ± 0.17
self-splicing fitness (ln) (37 °C): -1.04 ± 0.16

ACCGAGCAAUAUUACGAGUG
self-splicing fitness (ln) (30 °C): -2.82 ± 0.11
self-splicing fitness (ln) (37 °C): -1.49 ± 0.094

ACCGAGCAAUAUUACGAUGG
self-splicing fitness (ln) (30 °C): -2.27 ± 0.094
self-splicing fitness (ln) (37 °C): -1.39 ± 0.11

ACCGAGCAAUAUUACGCACC
self-splicing fitness (ln) (30 °C): -2.84 ± 0.22
self-splicing fitness (ln) (37 °C): -1.08 ± 0.21

ACCGAGCAAUAUUACGCCCU
self-splicing fitness (ln) (30 °C): -2.6 ± 0.25
self-splicing fitness (ln) (37 °C): 0.248 ± 0.21

ACCGAGCAAUAUUACGCGAU
self-splicing fitness (ln) (30 °C): -2.5 ± 0.14
self-splicing fitness (ln) (37 °C): -1.73 ± 0.14

ACCGAGCAAUAUUACGCGGA
self-splicing fitness (ln) (30 °C): -2.09 ± 0.1
self-splicing fitness (ln) (37 °C): -0.721 ± 0.089

ACCGAGCAAUAUUACGCUGU
self-splicing fitness (ln) (30 °C): -3.32 ± 0.17
self-splicing fitness (ln) (37 °C): -0.834 ± 0.13

ACCGAGCAAUAUUACGGACU
self-splicing fitness (ln) (30 °C): -0.27 ± 0.073
self-splicing fitness (ln) (37 °C): 0.614 ± 0.1

ACCGAGCAAUAUUACGGAUC
self-splicing fitness (ln) (30 °C): -3.86 ± 0.26
self-splicing fitness (ln) (37 °C): -1.95 ± 0.2

ACCGAGCAAUAUUACGGUAC
self-splicing fitness (ln) (30 °C): -2.82 ± 0.3
self-splicing fitness (ln) (37 °C): -2.46 ± 0.33

ACCGAGCAAUAUUACGGUGU
self-splicing fitness (ln) (30 °C): -2.88 ± 0.13
self-splicing fitness (ln) (37 °C): -2.15 ± 0.12

ACCGAGCAAUAUUACGGUUA
self-splicing fitness (ln) (30 °C): -1.33 ± 0.18
self-splicing fitness (ln) (37 °C): -1.85 ± 0.17

ACCGAGCAAUAUUACGUGGA
self-splicing fitness (ln) (30 °C): -2.84 ± 0.15
self-splicing fitness (ln) (37 °C): -2.99 ± 0.18

ACCGAGCAAUAUUACGUGUC
self-splicing fitness (ln) (30 °C): -3.24 ± 0.2
self-splicing fitness (ln) (37 °C): -3.04 ± 0.27

ACCGAGCAAUAUUACGUUAU
self-splicing fitness (ln) (30 °C): -3.78 ± 0.14
self-splicing fitness (ln) (37 °C): -2.6 ± 0.15

ACCGAGCAAUAUUACGUUCU
self-splicing fitness (ln) (30 °C): -2.38 ± 0.074
self-splicing fitness (ln) (37 °C): -1.01 ± 0.074

ACCGAGCAAUAUUACGUUUG
self-splicing fitness (ln) (30 °C): -2.86 ± 0.13
self-splicing fitness (ln) (37 °C): -2.19 ± 0.14

ACCUAGCAAUAUUACGAAGG
self-splicing fitness (ln) (30 °C): -2.16 ± 0.086
self-splicing fitness (ln) (37 °C): -1.85 ± 0.15

ACCUAGCAAUAUUACGACCC
self-splicing fitness (ln) (30 °C): -0.886 ± 0.2
self-splicing fitness (ln) (37 °C): -0.637 ± 0.31

ACCUAGCAAUAUUACGAGCA
self-splicing fitness (ln) (30 °C): -1.17 ± 0.1
self-splicing fitness (ln) (37 °C): -1.59 ± 0.14
